Blank lines part the entries; values can stand above or below the binder they belong to.
Target: highly frequent MHC Class I alleles in major US ethnic groups, including 38 HLA-A, 40 HLA-B, and 24 HLA-C alleles, on a panel of 34 BLCLs
Assay: cell-based or functional assay

cytokine (IFNg, TNFa, IL-12p70) and granzyme B production in co-culture with BLCLs, fold over IL12-RFP control T cells: < 4 fold
B1: TCR3 (TCR)
TCR alpha: AQKVTQAQTEISVVEKEDVTLDCVYETRDTTYYLFWYKQPPSGELVFLIRRNSFDEQNEISGRYSWNFQKSTSSFNFTITASQVVDSAVYFCALSVLRMDSSYKLIFGSGTRLLVRPDIQNPDPAVYQLRDSKSSDKSVCLFTDFDSQTNVSQSKDSDVYITDKTVLDMRSMDFKSNSAVAWSNKSDFACANAFNNSIIPEDTFFPSPESSCDVKLVEKSFETDTNLNFQNLSVIGFRILLLKVAGFNLLMTLRLWSS
TCR beta: NAGVTQTPKFRVLKTGQSMTLLCAQDMNHEYMYWYRQDPGMGLRLIHYSVGEGTTAKGEVPDGYNVSRLKKQNFLLGLESAAPSQTSVYFCASSLQGAGQPQHFGDGTRLSILEDLNKVFPPEVAVFEPSEAEISHTQKATLVCLATGFFPDHVELSWWVNGKEVHSGVSTDPQPLKEQPALNDSRYCLSSRLRVSATFWQNPRNHFRCQVQFYGLSENDEWTQDRAKPVTQIVSAEAWGRADCGFTSVSYQQGVLSATILYEILLGKATLYAVLVSALVLMAMVKRKDF

cytokine (IFNg, TNFa, IL-12p70) and granzyme B production in co-culture with BLCLs, fold over IL12-RFP control T cells: < 4 fold
B2: TCR1 (TCR)
TCR alpha: KQEVTQIPAALSVPEGENLVLNCSFTDSAIYNLQWFRQDPGKGLTSLLLIQSSQREQTSGRLNASLDKSSGRSTLYIAASQPGDSATYLCAAMKTSYDKVIFGPGTSLSVIPNIQNPDPAVYQLRDSKSSDKSVCLFTDFDSQTNVSQSKDSDVYITDKTVLDMRSMDFKSNSAVAWSNKSDFACANAFNNSIIPEDTFFPSPESSCDVKLVEKSFETDTNLNFQNLSVIGFRILLLKVAGFNLLMTLRLWSS
TCR beta: GEEVAQTPKHLVRGEGQKAKLYCAPIKGHSYVFWYQQVLKNEFKFLISFQNENVFDETGMPKERFSAKCLPNSPCSLEIQATKLEDSAVYFCASSQGQGGYGYTFGSGTRLTVVEDLNKVFPPEVAVFEPSEAEISHTQKATLVCLATGFFPDHVELSWWVNGKEVHSGVSTDPQPLKEQPALNDSRYCLSSRLRVSATFWQNPRNHFRCQVQFYGLSENDEWTQDRAKPVTQIVSAEAWGRADCGFTSVSYQQGVLSATILYEILLGKATLYAVLVSALVLMAMVKRKDF

cytokine (IFNg, TNFa, IL-12p70) and granzyme B production in co-culture with BLCLs, fold over IL12-RFP control T cells: < 4 fold
B3: TCR2 (TCR)
TCR alpha: QKEVEQNSGPLSVPEGAIASLNCTYSDRGSQSFFWYRQYSGKSPELIMSIYSNGDKEDGRFTAQLNKASQYVSLLIRDSQPSDSATYLCAVNIPFSNSGGYQKVTFGTGTKLQVIPNIQNPDPAVYQLRDSKSSDKSVCLFTDFDSQTNVSQSKDSDVYITDKTVLDMRSMDFKSNSAVAWSNKSDFACANAFNNSIIPEDTFFPSPESSCDVKLVEKSFETDTNLNFQNLSVIGFRILLLKVAGFNLLMTLRLWSS
TCR beta: NAGVTQTPKFRVLKTGQSMTLLCAQDMNHEYMYWYRQDPGMGLRLIHYSVGEGTTAKGEVPDGYNVSRLKKQNFLLGLESAAPSQTSVYFCASRHPGQYNQPQHFGDGTRLSILEDLNKVFPPEVAVFEPSEAEISHTQKATLVCLATGFFPDHVELSWWVNGKEVHSGVSTDPQPLKEQPALNDSRYCLSSRLRVSATFWQNPRNHFRCQVQFYGLSENDEWTQDRAKPVTQIVSAEAWGRADCGFTSVSYQQGVLSATILYEILLGKATLYAVLVSALVLMAMVKRKDF
